L-cluster occupancy of AvNifEN^Ec-L calculated from the Fe content, after in vivo transfer of the L-cluster from NifB to NifEN in E. coli and L-cluster occupancy of AvNifEN^Ec-L relative to native AvNifEN^L (intensity of the g = 1.94 EPR feature), after in vivo transfer of the L-cluster from NifB to NifEN in E. coli data for one molecule are collected here from article PMC12047441.

In the test the target is T1, His-tagged A. vinelandii NifEN heterologously expressed in E. coli, O- and L-cluster containing (AvNifEN^Ec-L) (A. vinelandii) (UniProt P08293).
T1 sequence 1: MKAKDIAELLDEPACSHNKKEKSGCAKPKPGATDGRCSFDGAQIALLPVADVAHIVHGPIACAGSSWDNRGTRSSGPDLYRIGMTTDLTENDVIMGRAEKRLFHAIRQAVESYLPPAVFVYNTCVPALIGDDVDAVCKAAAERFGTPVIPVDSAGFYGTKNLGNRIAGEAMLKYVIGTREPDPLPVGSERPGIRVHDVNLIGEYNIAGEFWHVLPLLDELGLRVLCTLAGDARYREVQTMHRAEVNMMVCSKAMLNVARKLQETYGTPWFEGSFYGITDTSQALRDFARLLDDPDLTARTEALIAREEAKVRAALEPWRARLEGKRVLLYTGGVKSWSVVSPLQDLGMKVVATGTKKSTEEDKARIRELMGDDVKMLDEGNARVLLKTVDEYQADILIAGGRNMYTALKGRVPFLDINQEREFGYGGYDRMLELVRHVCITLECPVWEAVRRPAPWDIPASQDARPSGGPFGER
T1 sequence 2: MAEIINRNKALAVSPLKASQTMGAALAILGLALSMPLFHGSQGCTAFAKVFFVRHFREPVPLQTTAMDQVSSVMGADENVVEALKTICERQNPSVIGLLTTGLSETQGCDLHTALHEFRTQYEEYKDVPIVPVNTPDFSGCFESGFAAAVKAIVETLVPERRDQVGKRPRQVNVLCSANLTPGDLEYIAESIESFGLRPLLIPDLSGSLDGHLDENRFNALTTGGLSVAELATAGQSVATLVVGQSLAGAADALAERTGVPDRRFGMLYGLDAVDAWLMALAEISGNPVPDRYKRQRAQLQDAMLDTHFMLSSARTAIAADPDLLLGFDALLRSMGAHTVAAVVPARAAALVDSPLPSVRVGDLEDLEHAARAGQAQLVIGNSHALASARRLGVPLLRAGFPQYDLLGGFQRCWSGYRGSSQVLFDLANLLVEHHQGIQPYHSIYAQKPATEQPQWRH

B1: M. acetivorans NifB (MaNifB), radical SAM enzyme, L-cluster bound (enzyme)
chain: MPEENQPIKEKNNGPILGEELLRKISEHPCYDKNAQHKYGRIHLAVAPACNIQCNFCVREFDCVNESRPGVTSKVLTPEEALEKTKQILAEYPFIKVVAIAGPGDPLANDETFETFELIRNEFPEITLCMSTNGLMLPEKLPEILRTGVSTLTVTVNAIDPEIQAKIVDHIFYHGKVYKGVEAAKIQIKNQLDGIKAAIDAGIVVKVNTVLIPGINDKHIIEIAKKLNELGVYIMNVMPLINQGAFADLEPPTPEERKAVQEACEPYVMQMRHCRQCRADAYGLLAQDMSQMSEERRKVIKIQTKEDMEKARAVLEKNGKKEA
As for B1, the L-cluster occupancy of AvNifEN^Ec-L calculated from the Fe content, after in vivo transfer of the L-cluster from NifB to NifEN in E. coli was 42.9% and the L-cluster occupancy of AvNifEN^Ec-L relative to native AvNifEN^L (intensity of the g = 1.94 EPR feature), after in vivo transfer of the L-cluster from NifB to NifEN in E. coli was found to be 36%.
